In publication PMC3823998, “Structural and Functional Characterization of the Redβ Recombinase from Bacteriophage λ” (PLoS ONE, 2013):
Numbering of substitutions follows the chain as printed.

Experiments:
Assay in all cases: EMSA; glutaraldehyde-fixed; ssDNA EMSA: 10 nM DNA, 50 mM potassium phosphate pH 6.0, 5 mM EDTA, 5% glycerol, 0.1 mg/ml BSA, 37°C, 40 min, then 0.1% glutaraldehyde; second-strand EMSA: 5 nM each strand, 20 mM Tris-HCl pH 7.5, 5 mM MgCl2, 1 mM DTT, 0.1 mg/ml BSA, 37°C
Conditions in all cases: protein: recombinant; tags: His6 removed; N-terminal GSH left; label: 5' Cy3
Redβ K172A = target: T1, Redβ K172A (Bacteriophage λ (Enterobacteria phage λ), UniProt P03698 1-261, K172A)
T1 sequence: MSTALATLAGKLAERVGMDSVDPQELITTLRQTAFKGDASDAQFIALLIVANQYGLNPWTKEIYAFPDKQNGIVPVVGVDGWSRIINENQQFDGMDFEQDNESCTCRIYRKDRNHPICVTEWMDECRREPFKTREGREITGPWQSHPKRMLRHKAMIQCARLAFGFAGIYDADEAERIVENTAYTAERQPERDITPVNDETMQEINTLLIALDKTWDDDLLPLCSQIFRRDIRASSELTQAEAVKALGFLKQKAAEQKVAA

Redβ R149A = target: T2, Redβ R149A (Bacteriophage λ (Enterobacteria phage λ), UniProt P03698 1-261, R149A)
T2 sequence: T1 sequence with R149A, A172K

Redβ R152A = target: T3, Redβ R152A (Bacteriophage λ (Enterobacteria phage λ), UniProt P03698 1-261, R152A)
T3 sequence: T1 sequence with R152A, A172K

Redβ V79A = target: T4, Redβ V79A (Bacteriophage λ (Enterobacteria phage λ), UniProt P03698 1-261, V79A)
T4 sequence: T1 sequence with V79A, A172K

Redβ D80A = target: T5, Redβ D80A (Bacteriophage λ (Enterobacteria phage λ), UniProt P03698 1-261, D80A)
T5 sequence: T1 sequence with D80A, A172K

Redβ R161A = target: T6, Redβ R161A (Bacteriophage λ (Enterobacteria phage λ), UniProt P03698 1-261, R161A)
T6 sequence: T1 sequence with R161A, A172K

TGCGGATGGCTTAGAGCTTAATTGCTGAATCTGGTGCTGTAGCTCAACAT (ssDNA) [50-minus ssDNA]
binding signal (Redβ K172A): 76 % of WT binding at 3 µM protein | binding signal (Redβ R149A): 44 % of WT binding at 3 µM protein | binding signal (Redβ R152A): 13 % of WT binding at 3 µM protein | binding signal (Redβ V79A): 21 % of WT binding at 3 µM protein | binding signal (Redβ D80A): 87 % of WT binding at 3 µM protein | binding signal (Redβ R161A): 11 % of WT binding at 3 µM protein
